Results reported in patent US20200392203A1 (YEDA RESEARCH AND DEVELOPMENT, published 2020).

Legend:
[1] = molecular target: native spike complex (glycoprotein complex, GPC) of Sabia virus (SABV) (Sabia virus (SABV)); test: cell-based or functional assay
[2] = molecular target: native spike complex (glycoprotein complex, GPC) of Junin virus (JUNV) (Junin virus (JUNV)); test: cell-based or functional assay
[3] = molecular target: GP1SBOV-Fc (GP1 domain of Sabia virus fused at its C' terminus to an antibody Fc portion) (Sabia virus (SABV)); test: SPR (Biacore T200), single-cycle kinetics; […]; 1:1 model fit
[4] = molecular target: T1, native spike complex (glycoprotein complex, GPC) of Machupo virus (MACV) (Machupo virus (MACV), UniProt Q6IUF7 2-496); test: cell-based or functional assay
T1 sequence: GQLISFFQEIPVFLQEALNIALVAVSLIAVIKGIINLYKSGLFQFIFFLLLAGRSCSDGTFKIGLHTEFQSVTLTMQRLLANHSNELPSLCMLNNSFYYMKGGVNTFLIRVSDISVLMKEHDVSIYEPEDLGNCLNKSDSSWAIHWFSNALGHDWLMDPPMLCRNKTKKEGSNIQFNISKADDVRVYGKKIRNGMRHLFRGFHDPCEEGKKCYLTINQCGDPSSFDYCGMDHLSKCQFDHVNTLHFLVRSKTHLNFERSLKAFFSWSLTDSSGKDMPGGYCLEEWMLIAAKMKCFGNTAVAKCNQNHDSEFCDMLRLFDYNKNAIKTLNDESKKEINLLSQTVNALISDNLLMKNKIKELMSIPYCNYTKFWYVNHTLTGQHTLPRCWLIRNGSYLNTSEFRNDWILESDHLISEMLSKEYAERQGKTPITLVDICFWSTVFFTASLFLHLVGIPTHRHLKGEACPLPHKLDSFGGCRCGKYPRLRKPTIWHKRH

[5] = molecular target: GP1JUNV-Fc (GP1 domain of Junin virus fused at its C' terminus to an antibody Fc portion) (Junin virus (JUNV)); test: SPR (Biacore T200), single cycle kinetics; […]; 1:1 model
[6] = molecular target: GP1MACV-Fc (GP1 domain of Machupo virus fused at its C' terminus to an antibody Fc portion) (Machupo virus (MACV)) (UniProt Q6IUF7); test: as above

| Molecule | IC50 values (µg/ml), neutralization of pseudotyped virus [1] [µg/mL] | IC50 values (µg/ml), neutralization of pseudotyped virus [2] [µg/mL] | Kd [3] [nM] | pseudovirus neutralisation, IC50 (read off the curve) [4] [nM] | Kd [5] [nM] | Kd [6] [nM] |
| --- | --- | --- | --- | --- | --- | --- |
| Arenacept (sAD fused at its C'-terminus to an Fc portion of IgG1) (Fc fusion) | 3.5 | 2.4 |  |  |  |  |
| soluble apical domain (sAD) of Neotoma albigula (White-throated woodrat) TfR1 (receptor) GSKIQVKCSAPNSVTITNASGGLYLVEYPEGYVAYSKATEVTGKLVHANFGTKKDFEDLDYAVNGSIVIVRAGKITIAEKVANAQSFNAIGVLIYKDRTKYPISRADEPLQGHSGLPSIPVQTISREAAEKLFQNMERDCPRSWNTDSSCKLELLQNRNVKLTVNNCLKE |  |  | 63 | ~10 | 1000 | 4 |
